Measurements: publication PMC6093860
Where two headings read alike, the source gives them in different places.

What was measured:
[1] = biological target: human complement component 9 (C9), wild type (human); experiment: cryo-EM structure; polyC9 formed from purified human C9 at 1.1-1.5 mg mL^-1 in 10 mM HEPES pH 7.5, 50 mM NaCl with amphipol A8-35 (0.015-0.02 mg mL^-1), 37 °C overnight; ring of C9 subunits
[2] = biological target: human complement component 9 (C9), wild type (human); experiment: as above; remark: listed apart in the source

“human complement component 9 (C9), wild type (natural protein)” showed a stoichiometry N [1] of 22 and a stoichiometry N [2] of 21.
